B1: IgG1-ROR2-A-HC1LC3-FEAR (antibody)
heavy: QSVLESGGGLVQPGGSLRLSCTVSGFSLSSYSMSWVRQAPGKGLEWIGVIYVNSKTWYANWAKGRFTISKTSTTVDLKITSPTAEDTATYFCARGDAGYTTNSWLWGQGTLVTVSSASTKGPSVFPLAPSSKSTSGGTAALGCLVKDYFPEPVTVSWNSGALTSGVHTFPAVLQSSGLYSLSSVVTVPSSSLGTQTYICNVNHKPSNTKVDKRVEPKSCDKTHTCPPCPAPEFEGGPSVFLFPPKPKDTLMISRTPEVTCVVVAVSHEDPEVKFNWYVDGVEVHNAKTKPREEQYNSTYRVVSVLTVLHQDWLNGKEYKCKVSNKALPAPIEKTISKAKGQPREPQVYTLPPSREEMTKNQVSLTCLVKGFYPSDIAVEWESNGQPENNYKTTPPVLDSDGSFFLYSRLTVDKSRWQQGNVFSCSVMHEALHNHYTQKSLSLSPGK
VL: AFELTQSPSSLSASVGDRVTITCQASESIDNYLSWYQQKPGKAPKLLIYQAFKLASGVPSRFRGSGSGTDFTLTISSLQPEDFATYYCQSYSGISTTAFGGGTKVEIK
notes: Humanized variant
B2: IgG1-ROR2-A-HC1LC4-FEAR (antibody)
heavy: QSVLESGGGLVQPGGSLRLSCTVSGFSLSSYSMSWVRQAPGKGLEWIGVIYVNSKTWYANWAKGRFTISKTSTTVDLKITSPTAEDTATYFCARGDAGYTTNSWLWGQGTLVTVSSASTKGPSVFPLAPSSKSTSGGTAALGCLVKDYFPEPVTVSWNSGALTSGVHTFPAVLQSSGLYSLSSVVTVPSSSLGTQTYICNVNHKPSNTKVDKRVEPKSCDKTHTCPPCPAPEFEGGPSVFLFPPKPKDTLMISRTPEVTCVVVAVSHEDPEVKFNWYVDGVEVHNAKTKPREEQYNSTYRVVSVLTVLHQDWLNGKEYKCKVSNKALPAPIEKTISKAKGQPREPQVYTLPPSREEMTKNQVSLTCLVKGFYPSDIAVEWESNGQPENNYKTTPPVLDSDGSFFLYSRLTVDKSRWQQGNVFSCSVMHEALHNHYTQKSLSLSPGK
VL: DIQLTQSPSSLSASVGDRVTITCQASESIDNYLSWYQQKPGKAPKLLIYQAFKLASGVPSRFRGSGSGTDFTLTISSLQPEDFATYYCQSYSGISTTAFGGGTKVEIK
notes: Humanized variant
B3: IgG1-ROR2-A-HC2LC1-FEAR (antibody, V domains shown)
VH: QSVLESGGGLVQPGGSLRLSCTVSGFSLSSYSMSWVRQAPGKGLEWIGVIYVNSKTWYANWAKGRFTISKTSTTVYLQMNSLRAEDTATYFCARGDAGYTTNSWLWGQGTLVTVSS
VL: AFELTQSPSSLSASVGDRVTITCQASESIDNYCSWYQQKPGKAPKLLIYQAFKLASGVPSRFRGSGSGTDFTLTISSLQSEDFATYYCQSYSGISTTAFGGGTEVVIK
notes: Humanized variant
B4: IgG1-ROR2-A-HC2LC2-FEAR (antibody, V domains shown)
VH: QSVLESGGGLVQPGGSLRLSCTVSGFSLSSYSMSWVRQAPGKGLEWIGVIYVNSKTWYANWAKGRFTISKTSTTVYLQMNSLRAEDTATYFCARGDAGYTTNSWLWGQGTLVTVSS
VL: AFELTQSPSSLSASVGDRVTITCQASESIDNYLSWYQQKPGKAPKLLIYQAFKLASGVPSRFRGSGSGTDFTLTISSLQSEDFATYYCQSYSGISTTAFGGGTEVVIK
notes: Humanized variant
B5: IgG1-ROR2-A-HC2LC3-FEAR (antibody)
heavy: QSVLESGGGLVQPGGSLRLSCTVSGFSLSSYSMSWVRQAPGKGLEWIGVIYVNSKTWYANWAKGRFTISKTSTTVYLQMNSLRAEDTATYFCARGDAGYTTNSWLWGQGTLVTVSSASTKGPSVFPLAPSSKSTSGGTAALGCLVKDYFPEPVTVSWNSGALTSGVHTFPAVLQSSGLYSLSSVVTVPSSSLGTQTYICNVNHKPSNTKVDKRVEPKSCDKTHTCPPCPAPEFEGGPSVFLFPPKPKDTLMISRTPEVTCVVVAVSHEDPEVKFNWYVDGVEVHNAKTKPREEQYNSTYRVVSVLTVLHQDWLNGKEYKCKVSNKALPAPIEKTISKAKGQPREPQVYTLPPSREEMTKNQVSLTCLVKGFYPSDIAVEWESNGQPENNYKTTPPVLDSDGSFFLYSRLTVDKSRWQQGNVFSCSVMHEALHNHYTQKSLSLSPGK
VL: AFELTQSPSSLSASVGDRVTITCQASESIDNYLSWYQQKPGKAPKLLIYQAFKLASGVPSRFRGSGSGTDFTLTISSLQPEDFATYYCQSYSGISTTAFGGGTKVEIK
notes: Humanized variant

Biological target: T1, his-tagged ROR2 extracellular domain (ROR2-ECD, G&P Biosciences, cat. no. FCL0192) (human, UniProt Q01974 34-403)
T1 construct: Bought protein; also called human ROR2-ECD; recombinant human ROR2-ECD; not shown: his tag
T1 sequence (Q01974 34-403): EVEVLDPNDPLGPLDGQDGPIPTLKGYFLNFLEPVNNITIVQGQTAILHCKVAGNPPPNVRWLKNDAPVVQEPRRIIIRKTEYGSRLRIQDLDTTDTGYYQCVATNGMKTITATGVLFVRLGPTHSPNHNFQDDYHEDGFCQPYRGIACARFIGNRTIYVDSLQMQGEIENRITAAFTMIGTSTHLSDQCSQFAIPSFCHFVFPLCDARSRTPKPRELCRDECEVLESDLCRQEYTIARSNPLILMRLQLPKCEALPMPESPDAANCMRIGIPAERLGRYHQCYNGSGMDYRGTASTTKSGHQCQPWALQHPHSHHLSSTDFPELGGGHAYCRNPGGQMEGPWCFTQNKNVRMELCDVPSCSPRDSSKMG
Assay: BLI (Octet), antibody on anti-human IgG Fc sensor, ROR2-ECD 1.56-100 nM as analyte

In order of falling Kd:
1. B2  2 nM
2. B5  2 nM
3. B1  1.8 nM
4. B4  1.8 nM
5. B3  1.7 nM

In order of rising koff:
1. B3  0.00085 s⁻¹
2. B4  0.00089 s⁻¹
3. B1  0.00097 s⁻¹
4. B5  0.001 s⁻¹
5. B2  0.0012 s⁻¹

In order of rising kon:
1. B5  490000 M⁻¹ s⁻¹
2. B3  510000 M⁻¹ s⁻¹
3. B4  510000 M⁻¹ s⁻¹
4. B1  550000 M⁻¹ s⁻¹
5. B2  560000 M⁻¹ s⁻¹

From patent publication US20230365714A1 (published 2023)
